Source: the Immune Epitope Database (IEDB)

Key:
[1] = target: HLA-B*07:02; experiment: IEDB peptide-MHC binding, purified MHC/competitive/radioactivity; filed as Kd, often an IC50 or EC50 that approximates it; ≥ and ≤ were set here for values at or beyond the usual limits of such assays
[2] = target: HLA-B*35:01; experiment: as above
[3] = target: HLA-B*51:01; experiment: as above
[4] = target: HLA-B*53:01; experiment: as above
[5] = target: HLA-B*54:01; experiment: as above
[6] = target: HLA-A*02:01; experiment: IEDB peptide-MHC binding, purified MHC/direct/fluorescence; filed as Kd, often an IC50 or EC50 that approximates it; ≥ and ≤ were set here for values at or beyond the usual limits of such assays
[7] = target: HLA-A*02:03; experiment: as above; details: source organism: Variola virus
[8] = target: HLA-A*02:11; experiment: as above; details: source organism: Variola virus
[9] = target: HLA-A*69:01; experiment: as above
[10] = target: HLA-A*11:01; experiment: IEDB peptide-MHC binding, purified MHC/competitive/fluorescence; filed as Kd, often an IC50 or EC50 that approximates it; ≥ and ≤ were set here for values at or beyond the usual limits of such assays
[11] = target: HLA-A*03:01; experiment: as above
[12] = target: HLA-A*31:01; experiment: as above; details: source organism: Encephalitozoon cuniculi GB-M1
[13] = target: HLA-A*02:01; experiment: as above; details: source organism: Listeria monocytogenes EGD-e
[14] = target: HLA-A*02:12; experiment: as above; details: source organism: Listeria monocytogenes EGD-e
[15] = target: HLA-A*26:01; experiment: as above; details: source organism: Listeria monocytogenes EGD-e
[16] = target: HLA-A*29:02; experiment: as above; details: source organism: Listeria monocytogenes EGD-e
[17] = target: HLA-B*15:01; experiment: as above; details: source organism: Listeria monocytogenes EGD-e
[18] = target: HLA-B*18:01; experiment: as above; details: source organism: Listeria monocytogenes EGD-e
[19] = target: HLA-B*27:03; experiment: as above; details: source organism: Listeria monocytogenes EGD-e
[20] = target: HLA-B*39:01; experiment: as above; details: source organism: Listeria monocytogenes EGD-e
[21] = target: HLA-B*46:01; experiment: as above; details: source organism: Listeria monocytogenes EGD-e
[22] = target: HLA-B*57:01; experiment: as above; details: source organism: Listeria monocytogenes EGD-e
[23] = target: HLA-A*01:01; experiment: IEDB peptide-MHC binding, purified MHC/direct/fluorescence; filed as Kd, often an IC50 or EC50 that approximates it; ≥ and ≤ were set here for values at or beyond the usual limits of such assays; details: source organism: Yellow fever virus
[24] = target: HLA-A*03:01; experiment: as above; details: source organism: Yellow fever virus
[25] = target: HLA-A*29:02; experiment: as above; details: source organism: Yellow fever virus
[26] = target: HLA-A*31:01; experiment: as above; details: source organism: Yellow fever virus
[27] = target: HLA-B*15:01; experiment: as above; details: source organism: Yellow fever virus
[28] = target: HLA-B*18:01; experiment: as above; details: source organism: Yellow fever virus
[29] = target: HLA-B*27:05; experiment: as above; details: source organism: Yellow fever virus
[30] = target: HLA-B*40:01; experiment: as above; details: source organism: Yellow fever virus
[31] = target: HLA-B*44:02; experiment: as above; details: source organism: Yellow fever virus
[32] = target: HLA-B*46:01; experiment: as above; details: source organism: Yellow fever virus
[33] = target: HLA-B*48:01; experiment: as above; details: source organism: Yellow fever virus
[34] = target: HLA-B*57:01; experiment: as above; details: source organism: Yellow fever virus
[35] = target: HLA-B*58:01; experiment: as above; details: source organism: Yellow fever virus
[36] = source organism: Vaccinia virus WR
[37] = source organism: Camelpox virus M-96
[38] = source organism: Encephalitozoon cuniculi GB-M1
[39] = source organism: Mammarenavirus guanaritoense
[40] = source organism: SARS coronavirus Tor2
[41] = source organism: Yellow fever virus

Question: What does the source list for DPTFQLLNM?
Answer: Kd [1, 36]: ≥ 77500 nM; Kd [2, 36]: 1130 nM; Kd [3, 36]: 3350 nM; Kd [4, 36]: 237 nM; Kd [5, 36]: ≥ 78100 nM

Question: Which Kd [6, 37] does the source give for FLQQSIFRF here?
Answer: 154 nM

Question: And the Kd [7]?
Answer: 747 nM

Question: What about the Kd [8] of the same sequence?
Answer: 2 nM

Question: What about the Kd [9, 37] of the same sequence?
Answer: ≥ 20000 nM

Question: Which Kd ([10]; source organism: Influenza A virus (A/California/04/2009(H1N1))) does the source give for HAGAKSFYK here?
Answer: 5.5 nM

Question: Which Kd [11, 38] does the source give for ILSFPYLFK here?
Answer: 2.9 nM

Question: And the Kd [10, 38]?
Answer: 3.8 nM

Question: And the Kd [12]?
Answer: ≥ 20000 nM

Question: KPINLSNSV was tested. Which Kd [1, 39] did it give?
Answer: 22.9 nM

Question: And the Kd [2, 39]?
Answer: 188 nM

Question: What about the Kd [3, 39] of the same sequence?
Answer: 2160 nM

Question: What about the Kd [4, 39] of the same sequence?
Answer: 1150 nM

Question: And the Kd [5, 39]?
Answer: 193 nM

Question: Which Kd [13] does the source give for LAIVTTPLV here?
Answer: 27.2 nM

Question: What about the Kd [14] of the same sequence?
Answer: 144 nM

Question: And the Kd ([11]; source organism: Listeria monocytogenes EGD-e)?
Answer: ≥ 20000 nM

Question: And the Kd [15]?
Answer: ≥ 20000 nM

Question: What about the Kd [16] of the same sequence?
Answer: ≥ 20000 nM

Question: What about the Kd [17] of the same sequence?
Answer: ≥ 20000 nM

Question: And the Kd [18]?
Answer: ≥ 20000 nM

Question: What about the Kd [19] of the same sequence?
Answer: ≥ 20000 nM

Question: What about the Kd [20] of the same sequence?
Answer: ≥ 20000 nM

Question: And the Kd [21]?
Answer: ≥ 20000 nM

Question: And the Kd [22]?
Answer: ≥ 20000 nM

Question: With MPASWVMRIM as the sequence, how does the Kd [1, 40] read?
Answer: 8.51 nM

Question: And the Kd [2, 40]?
Answer: 18.2 nM

Question: And the Kd [3, 40]?
Answer: 8.61 nM

Question: What about the Kd [4, 40] of the same sequence?
Answer: 62.8 nM

Question: And the Kd [5, 40]?
Answer: 68.6 nM

Question: Which results are given for NPAWRKAVFI?
Answer: Kd [1, 40]: 3370 nM; Kd [2, 40]: ≥ 69900 nM; Kd [3, 40]: ≥ 41400 nM; Kd [4, 40]: ≥ 41800 nM; Kd [5, 40]: ≥ 69900 nM

Question: What does the source list for PHAATIRVL?
Answer: Kd [23]: ≥ 20000 nM; Kd [6, 41]: ≥ 20000 nM; Kd [24]: ≥ 20000 nM; Kd [25]: ≥ 20000 nM; Kd [26]: ≥ 20000 nM; Kd [9, 41]: ≥ 20000 nM; Kd [27]: ≥ 20000 nM; Kd [28]: ≥ 20000 nM; Kd [29]: ≥ 20000 nM; Kd [30]: ≥ 20000 nM; Kd [31]: ≥ 20000 nM; Kd [32]: ≥ 20000 nM; Kd [33]: ≥ 20000 nM; Kd [34]: ≥ 20000 nM; Kd [35]: ≥ 20000 nM
